The results in this text go back to PMC4157578 (Molecular Cell, 2014).

B1: CBP-Mcm3 (subunit of the MCM complex) (natural protein)
chain: MEGSTGFDGDATTFFAPDAVFGDRVRRFQEFLDTFTSYRDSVRSIQVYNSNNAANYNDDQDDADERDLLGDDDGDDLEKEKKAASSTSLNILPHRIIISLDDLREFDRSFWSGILVEPAYFIPPAEKALTDLADSMDDVPHPNASAVSSRHPWKLSFKGSFGAHALSPRTLTAQHLNKLVSVEGIVTKTSLVRPKLIRSVHYAAKTGRFHYRDYTDATTTLTTRIPTPAIYPTEDTEGNKLTTEYGYSTFIDHQRITVQEMPEMAPAGQLPRSIDVILDDDLVDKTKPGDRVNVVGVFKSLGAGGMNQSNSNTLIGFKTLILGNTVYPLHARSTGVAARQMLTDFDIRNINKLSKKKDIFDILSQSLAPSIYGHDHIKKAILLMLMGGVEKNLENGSHLRGDINILMVGDPSTAKSQLLRFVLNTASLAIATTGRGSSGVGLTAAVTTDRETGERRLEAGAMVLADRGVVCIDEFDKMTDVDRVAIHEVMEQQTVTIAKAGIHTTLNARCSVIAAANPVFGQYDVNRDPHQNIALPDSLLSRFDLLFVVTDDINEIRDRSISEHVLRTHRYLPPGYLEGEPVRERLNLSLAVGEDADINPEEHSNSGAGVENEGEDDEDHVFEKFNPLLQAGAKLAKNKGNYNGTEIPKLVTIPFLRKYVQYAKERVIPQLTQEAINVIVKNYTDLRNDDNTKKSPITARTLETLIRLATAHAKVRLSKTVNKVDAKVAANLLRFALLGEDIGNDIDEEESEYEEALSKRSPQKSPKKRQRVRQPASNSGSPIKSTPRRSTASSVNATPSSARRILRFQDDEQNAGEDDNDIMSPLPADEEAELQRRLQLGLRVSPRRREHLHAPEEGSSGPLTEVGTPRLPNVSSAGQDDEQQQSVISFDNVEPGTISTGRLSLISGIIARLMQTEIFEEESYPVASLFERINEELPEEEKFSAQEYLAGLKIMSDRNNLMVADDKVWRV
B2: Mcm4 (subunit of the MCM complex) (natural protein)
chain: MSQQSSSPTKEDNNSSSPVVPNPDSVPPQLSSPALFYSSSSSQGDIYGRNNSQNLSQGEGNIRAAIGSSPLNFPSSSQRQNSDVFQSQGRQGRIRSSASASGRSRYHSDLRSDRALPTSSSSLGRNGQNRVHMRRNDIHTSDLSSPRRIVDFDTRSGVNTLDTSSSSAPPSEASEPLRIIWGTNVSIQECTTNFRNFLMSFKYKFRKILDEREEFINNTTDEELYYIKQLNEMRELGTSNLNLDARNLLAYKQTEDLYHQLLNYPQEVISIMDQTIKDCMVSLIVDNNLDYDLDEIETKFYKVRPYNVGSCKGMRELNPNDIDKLINLKGLVLRSTPVIPDMKVAFFKCNVCDHTMAVEIDRGVIQEPARCERIDCNEPNSMSLIHNRCSFADKQVIKLQETPDFVPDGQTPHSISLCVYDELVDSCRAGDRIEVTGTFRSIPIRANSRQRVLKSLYKTYVDVVHVKKVSDKRLDVDTSTIEQELMQNKVDHNEVEEVRQITDQDLAKIREVAAREDLYSLLARSIAPSIYELEDVKKGILLQLFGGTNKTFTKGGRYRGDINILLCGDPSTSKSQILQYVHKITPRGVYTSGKGSSAVGLTAYITRDVDTKQLVLESGALVLSDGGVCCIDEFDKMSDSTRSVLHEVMEQQTISIAKAGIITTLNARSSILASANPIGSRYNPNLPVTENIDLPPPLLSRFDLVYLVLDKVDEKNDRELAKHLTNLYLEDKPEHISQDDVLPVEFLTMYISYAKEHIHPIITEAAKTELVRAYVGMRKMGDDSRSDEKRITATTRQLESMIRLAEAHAKMKLKNVVELEDVQEAVRLIRSAIKDYATDPKTGKIDMNLVQTGKSVIQRKLQEDLSREIMNVLKDQASDSMSFNELIKQINEHSQDRVESSDIQEALSRLQQEDKVIVLGEGVRRSVRLNNRV
B3: Mcm5 (subunit of the MCM complex) (natural protein)
chain: MSFDRPEIYSAPVLQGESPNDDDNTEIIKSFKNFILEFRLDSQFIYRDQLRNNILVKNYSLTVNMEHLIGYNEDIYKKLSDEPSDIIPLFETAITQVAKRISILSRAQSANNNDKDPENTSMDTDSLLLNSLPTFQLILNSNANQIPLRDLDSEHVSKIVRLSGIIISTSVLSSRATYLSIMCRNCRHTTSITINNFNSITGNTVSLPRSCLSTIESESSMANESNIGDESTKKNCGPDPYIIIHESSKFIDQQFLKLQEIPELVPVGEMPRNLTMTCDRYLTNKVIPGTRVTIVGIYSIYNSKNGAGSGRSGGGNGGSGVAIRTPYIKILGIQSDVETSSIWNSVTMFTEEEEEEFLQLSRNPKLYEILTNSIAPSIFGNEDIKKAIVCLLMGGSKKILPDGMRLRGDINVLLLGDPGTAKSQLLKFVEKVSPIAVYTSGKGSSAAGLTASVQRDPMTREFYLEGGAMVLADGGVVCIDEFDKMRDEDRVAIHEAMEQQTISIAKAGITTVLNSRTSVLAAANPIYGRYDDLKSPGDNIDFQTTILSRFDMIFIVKDDHNEERDISIANHVINIHTGNANAMQNQQEENGSEISIEKMKRYITYCRLKCAPRLSPQAAEKLSSNFVTIRKQLLINELESTERSSIPITIRQLEAIIRITESLAKLELSPIAQERHVDEAIRLFQASTMDAASQDPIGGLNQASGTSLSEIRRFEQELKRRLPIGWSTSYQTLRREFVDTHRFSQLALDKALYALEKHETIQLRHQGQNIYRSGV
B4: Mcm2 (subunit of the MCM complex) (natural protein)
chain: MSDNRRRRREEDDSDSENELPPSSPQQHFRGGMNPVSSPIGSPDMINPEGDDNEVDDVPDIDEVEEQMNEVDLMDDNMYEDYAADHNRDRYDPDQVDDREQQELSLSERRRIDAQLNERDRLLRNVAYIDDEDEEQEGAAQLDEMGLPVQRRRRRRQYEDLENSDDDLLSDMDIDPLREELTLESLSNVKANSYSEWITQPNVSRTIARELKSFLLEYTDETGRSVYGARIRTLGEMNSESLEVNYRHLAESKAILALFLAKCPEEMLKIFDLVAMEATELHYPDYARIHSEIHVRISDFPTIYSLRELRESNLSSLVRVTGVVTRRTGVFPQLKYVKFNCLKCGSILGPFFQDSNEEIRISFCTNCKSKGPFRVNGEKTVYRNYQRVTLQEAPGTVPPGRLPRHREVILLADLVDVSKPGEEVEVTGIYKNNYDGNLNAKNGFPVFATIIEANSIKRREGNTANEGEEGLDVFSWTEEEEREFRKISRDRGIIDKIISSMAPSIYGHRDIKTAVACSLFGGVPKNVNGKHSIRGDINVLLLGDPGTAKSQILKYVEKTAHRAVFATGQGASAVGLTASVRKDPITKEWTLEGGALVLADKGVCLIDEFDKMNDQDRTSIHEAMEQQSISISKAGIVTTLQARCSIIAAANPNGGRYNSTLPLAQNVSLTEPILSRFDILCVVRDLVDEEADERLATFVVDSHVRSHPENDEDREGEELKNNGESAIEQGEDEINEQLNARQRRLQRQRKKEEEISPIPQELLMKYIHYARTKIYPKLHQMDMDKVSRVYADLRRESISTGSFPITVRHLESILRIAESFAKMRLSEFVSSYDLDRAIKVVVDSFVDAQKVSVRRQLRRSFAIYTLGH
B5: Mcm7 (subunit of the MCM complex) (natural protein)
chain: MSAALPSIQLPVDYNNLFNEITDFLVTFKQDTLSSDATRNENEDENLDAENIEQHLLEKGPKYMAMLQKVANRELNSVIIDLDDILQYQNEKFLQGTQADDLVSAIQQNANHFTELFCRAIDNNMPLPTKEIDYKDDVLDVILNQRRLRNERMLSDRTNEIRSENLMDTTMDPPSSMNDALREVVEDETELFPPNLTRRYFLYFKPLSQNCARRYRKKAISSKPLSVRQIKGDFLGQLITVRGIITRVSDVKPAVEVIAYTCDQCGYEVFQEVNSRTFTPLSECTSEECSQNQTKGQLFMSTRASKFSAFQECKIQELSQQVPVGHIPRSLNIHVNGTLVRSLSPGDIVDVTGIFLPAPYTGFKALKAGLLTETYLEAQFVRQHKKKFASFSLTSDVEERVMELITSGDVYNRLAKSIAPEIYGNLDVKKALLLLLVGGVDKRVGDGMKIRGDINVCLMGDPGVAKSQLLKAICKISPRGVYTTGKGSSGVGLTAAVMKDPVTDEMILEGGALVLADNGICCIDEFDKMDESDRTAIHEVMEQQTISISKAGINTTLNARTSILAAANPLYGRYNPRLSPLDNINLPAALLSRFDILFLMLDIPSRDDDEKLAEHVTYVHMHNKQPDLDFTPVEPSKMREYIAYAKTKRPVMSEAVNDYVVQAYIRLRQDSKREMDSKFSFGQATPRTLLGIIRLSQALAKLRLADMVDIDDVEEALRLVRVSKESLYQETNKSKEDESPTTKIFTIIKKMLQETGKNTLSYENIVKTVRLRGFTMLQLSNCIQEYSYLNVWHLINEGNTLKFVDDGTMDTDQEDSLVSTPKLAPQTTASANVSAQDSDIDLQDA

What all share (test): SEC
The target of experiment [1] is Mcm6 (subunit of the MCM complex) (S. cerevisiae, UniProt P53091 1-1017).
Experiment [2] concerns the target B1.
The target in experiment [3] is B5.

Chain of Mcm6 (subunit of the MCM complex) (P53091 whole entry, one chain of several): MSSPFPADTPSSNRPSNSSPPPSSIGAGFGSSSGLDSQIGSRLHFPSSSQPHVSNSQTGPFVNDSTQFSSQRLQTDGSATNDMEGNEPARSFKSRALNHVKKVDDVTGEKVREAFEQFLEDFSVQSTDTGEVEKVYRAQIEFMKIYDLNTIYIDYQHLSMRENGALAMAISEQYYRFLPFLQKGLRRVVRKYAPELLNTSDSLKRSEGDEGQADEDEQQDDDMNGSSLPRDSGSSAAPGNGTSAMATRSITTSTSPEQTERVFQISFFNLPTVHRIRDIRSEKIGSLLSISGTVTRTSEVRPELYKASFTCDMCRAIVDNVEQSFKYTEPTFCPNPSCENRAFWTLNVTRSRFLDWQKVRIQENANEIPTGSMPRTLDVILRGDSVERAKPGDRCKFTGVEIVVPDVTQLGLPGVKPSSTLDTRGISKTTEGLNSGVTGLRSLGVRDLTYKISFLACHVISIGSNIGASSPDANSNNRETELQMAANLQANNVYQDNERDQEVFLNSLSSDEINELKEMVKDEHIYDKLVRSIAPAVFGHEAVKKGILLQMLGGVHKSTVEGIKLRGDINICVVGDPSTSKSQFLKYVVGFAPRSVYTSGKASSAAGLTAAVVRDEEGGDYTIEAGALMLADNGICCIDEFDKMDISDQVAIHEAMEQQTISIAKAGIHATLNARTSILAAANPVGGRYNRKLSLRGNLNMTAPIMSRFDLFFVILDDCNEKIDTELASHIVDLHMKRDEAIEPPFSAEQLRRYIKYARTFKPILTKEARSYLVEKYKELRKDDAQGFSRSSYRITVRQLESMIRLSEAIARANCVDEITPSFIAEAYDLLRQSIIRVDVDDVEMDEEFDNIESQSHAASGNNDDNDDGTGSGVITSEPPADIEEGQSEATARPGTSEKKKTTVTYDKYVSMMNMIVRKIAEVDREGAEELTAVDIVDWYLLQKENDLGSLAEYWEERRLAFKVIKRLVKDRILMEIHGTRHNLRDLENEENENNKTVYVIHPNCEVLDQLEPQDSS

Take B1: in experiment [1], the binding result was “binds”. Regarding B2, the binding result in experiment [2] is “binds”. On to B3, for which the binding result in experiment [3] is reported as “binds”.

As to B4, the binding result in experiment [2] is “binds”. On to B5, for which the binding result in experiment [2] was “binds”.
